Source: patent EP2469278A1, “Reagentless fluorescent biosensors from nanofitins, rational design methods to create reagentless fluorescent biosensors and methods of their use” (Institut Pasteur, priority 2010, dated 2012)

Legend:
hen egg-white lysozyme [1] = target: T1, hen egg-white lysozyme (hen, UniProt P00698 19-147); assay: from Kd in solution: fluorescence titration of conjugate against competition Biacore of H4S(wt)
T1 construct: also called HEL

hen egg-white lysozyme [2] = target: T1, hen egg-white lysozyme; assay: fluorescence titration in solution, 0.3 µM conjugate, buffer C, 25 °C
[3] = target: T2, hen egg-white lysozyme (HEL) (Gallus gallus, UniProt P00698); assay: Titration of H4S conjugates with HEL, monitored by fluorescence; type: binding; settings: for ΔΔG: decrease of free energy of interaction with HEL on fluorophore conjugation, from Kd of conjugate versus H4S(wt); for sr: relative sensitivity of the conjugate at a fixed concentration of 0.3 µM (Equation 8), HEL; for ΔF∞/F0: maximal variation of F at λmax on HEL binding
T2 construct: hen egg-white lysozyme (HEL); purchased Sigma
Description: The binding and fluorescence experiments were performed at equilibrium as if the preparations of conjugates were homogeneous, i. e. as if yc = 1. The binding reactions were conducted by incubating 0.3 µM of conjugate with variable concentrations of the HEL or BSA antigens in a volume of 1 mL, for 30 min in the dark with gentle shaking. The reactions were carried out in Buffer C or in a mixture v:(1-v) of calf serum and Buffer C as indicated in example 2.
The conjugate (or biosensor) B and antigen A form a 1:1 complex B:A according to the reaction: B + A↔B:A [formula] At equilibrium, the concentration [B:A] of the complex is given by the equation: [B:A] = 0.5{[B]0+[A]0+Kd-(((([B]0+[A]0+Kd))^2-4[B]0[A]0))^(1/2)} [formula] where Kd is the dissociation constant, and [A]0 and [B]0 are the total concentrations of A and B, respectively (Renard et al., 2003).
The fluorescence of the IANBD conjugates was excited at 485 nm (5 nm slit width) and its intensity measured between 520 and 550 nm (20 nm slit width) with a FP-6300 spectrofluorometer (Jasco). The signal of HEL alone or BSA alone was measured in an independent experiment and subtracted from the global signal of the binding mixture to give the specific fluorescence intensity F of each conjugate. The intensity F at a given value of [A]0 satisfies the following equation: (F-F0)/F0 = ΔF/F0 = (ΔF∞/F0)([B:A]/[B]0) [formula] where F0 and F∞ are the values of F at zero and saturating concentrations of A (Renard et al., 2003). The values of ΔF∞/F0, Kd, and [B]0 could be determined by fitting Equation 5, in which [B:A] is given by Equation 4, to the experimental values of ΔF/F0, measured in a titration experiment. The fittings were performed with the Kaleidagraph software (Synergy Software).
The sensitivity s and relative sensitivity sr of a conjugate can be defined by the following equations for the low values of [A]0, i. e. in the initial part of the titration curve: ΔF = s[A]0 [formula] ΔF/F0 = sr [A]0 /[B]0 [formula] s and sr can be expressed as functions of characteristic parameters of the conjugate: sr = (ΔF∞/F0)([B]0/(Kd+[B]0)) [formula] s = fb sr [formula] where fb = F0/[B]0 is the molar fluorescence of the free conjugate (Renard and Bedouelle, 2004). Equation 8 implies that sr is maximal when the biosensor B is present at a concentration [B]0 >> Kd, as every newly titrated molecule A then forms a complex. Equation 6 implies that the lower limit of detection δ[A]0 of the conjugate is linked to the lower limit of measurement of the spectrofluorometer δF by the following equations: δ[A]0 = s^-1 δF = sr^-1 [B]0 (δF/F0) [formula]

[4] = 0.3 µM conjugate, buffer C, 25 °C, value ± SE of fitting

| ΔΔG [3] [kcal/mol] | sr ([3]; buffer C) | Molecule | other results |
| --- | --- | --- | --- |
| – | – | H4S conjugate, IANBD fluorophore coupled at position Asn9 (designed binder, Cys at position 9 (H4S numbering) coupled to IANBD ester (ANBD)) MRGSHHHHHHGSVKVKFFWCGEEKEVDTSKIVWVKRAGKSVLFIYDDNGKNGYGDVTEKDAPKELLDMLARAEREKKLN | ΔΔG (conjugate against H4S(wt)) (hen egg-white lysozyme [1]): ≤ 0.5 kcal/mol; Kd (hen egg-white lysozyme [2]): 7 nM; ΔF∞/F0 (maximal relative variation of fluorescence on HEL binding) (hen egg-white lysozyme [2]): 0.52 |
| ≥ 1.5 | 0.17 | Leu31: H4S conjugate: residue Leu31 changed into cysteine and coupled with the IANBD fluorophore (conjugate) MRGSHHHHHHGSVKVKFFWNGEEKEVDTSKIVWVKRAGKSVCFIYDDNGKNGYGDVTEKDAPKELLDMLARAEREKKLN | – |
| ≤ 0.5 | – | Asn9: H4S conjugate: residue Asn9 changed into cysteine and coupled with the IANBD fluorophore (conjugate) MRGSHHHHHHGSVKVKFFWCGEEKEVDTSKIVWVKRAGKSVLFIYDDNGKNGYGDVTEKDAPKELLDMLARAEREKKLN | – |
| ≥ 1.5 | 0.07 | Asn40: H4S conjugate: residue Asn40 changed into cysteine and coupled with the IANBD fluorophore (conjugate) MRGSHHHHHHGSVKVKFFWNGEEKEVDTSKIVWVKRAGKSVLFIYDDNGKCGYGDVTEKDAPKELLDMLARAEREKKLN | – |
| ≤ 0.5 | 0.22 | Phe7: H4S conjugate: residue Phe7 changed into cysteine and coupled with the IANBD fluorophore (conjugate) MRGSHHHHHHGSVKVKFCWNGEEKEVDTSKIVWVKRAGKSVLFIYDDNGKNGYGDVTEKDAPKELLDMLARAEREKKLN | – |
| ≥ 1.5 | nm | Ile33: H4S conjugate: residue Ile33 changed into cysteine and coupled with the IANBD fluorophore (conjugate) MRGSHHHHHHGSVKVKFFWNGEEKEVDTSKIVWVKRAGKSVLFCYDDNGKNGYGDVTEKDAPKELLDMLARAEREKKLN | Kd ([3]; fluorescence titration with HEL, 0.3 µM conjugate, buffer C, 25 °C, value ± SE of fitting): nM; ΔF∞/F0 [3, 4]: nm |
| ≤ 0.5 | 0.27 | Thr46: H4S conjugate: residue Thr46 changed into cysteine and coupled with the IANBD fluorophore (conjugate) MRGSHHHHHHGSVKVKFFWNGEEKEVDTSKIVWVKRAGKSVLFIYDDNGKNGYGDVCEKDAPKELLDMLARAEREKKLN | – |
| ≥ 1.5 | 0.72 | Tyr42: H4S conjugate: residue Tyr42 changed into cysteine and coupled with the IANBD fluorophore (conjugate) MRGSHHHHHHGSVKVKFFWNGEEKEVDTSKIVWVKRAGKSVLFIYDDNGKNGCGDVTEKDAPKELLDMLARAEREKKLN | – |
| ≤ 0.5 | 0.24 | Lys28: H4S conjugate: residue Lys28 changed into cysteine and coupled with the IANBD fluorophore (conjugate) MRGSHHHHHHGSVKVKFFWNGEEKEVDTSKIVWVKRAGCSVLFIYDDNGKNGYGDVTEKDAPKELLDMLARAEREKKLN | – |
| – | 1.16 | Lys39: H4S conjugate: residue Lys39 changed into cysteine and coupled with IANBD (SEQ ID NO: 63) (conjugate, IANBD fluorophore on Cys39) MRGSHHHHHHGSVKVKFFWNGEEKEVDTSKIVWVKRAGKSVLFIYDDNGCNGYGDVTEKDAPKELLDMLARAEREKKLN | – |
| – | 0.90 | Trp8: H4S conjugate: residue Trp8 changed into cysteine and coupled with IANBD (SEQ ID NO: 59) (conjugate, IANBD fluorophore on Cys8) MRGSHHHHHHGSVKVKFFCNGEEKEVDTSKIVWVKRAGKSVLFIYDDNGKNGYGDVTEKDAPKELLDMLARAEREKKLN | – |
| ≤ 0.5 | – | Ser29: H4S conjugate: residue Ser29 changed into cysteine and coupled with the IANBD fluorophore (conjugate) MRGSHHHHHHGSVKVKFFWNGEEKEVDTSKIVWVKRAGKCVLFIYDDNGKNGYGDVTEKDAPKELLDMLARAEREKKLN | – |
| – | 3.17 | Val21: H4S conjugate: residue Val21 changed into cysteine and coupled with IANBD (SEQ ID NO: 60) (conjugate, IANBD fluorophore on Cys21) MRGSHHHHHHGSVKVKFFWNGEEKEVDTSKICWVKRAGKSVLFIYDDNGKNGYGDVTEKDAPKELLDMLARAEREKKLN | – |
| ≥ 1.5 | 0.06 | Trp22: H4S conjugate: residue Trp22 changed into cysteine and coupled with the IANBD fluorophore (conjugate) MRGSHHHHHHGSVKVKFFWNGEEKEVDTSKIVCVKRAGKSVLFIYDDNGKNGYGDVTEKDAPKELLDMLARAEREKKLN | ΔF∞/F0 [3, 4]: 0.3±0.1 |
| ≥ 1.5 | 0.49 | Asp44: H4S conjugate: residue Asp44 changed into cysteine and coupled with the IANBD fluorophore (conjugate) MRGSHHHHHHGSVKVKFFWNGEEKEVDTSKIVWVKRAGKSVLFIYDDNGKNGYGCVTEKDAPKELLDMLARAEREKKLN | – |
| – | – | H4S conjugate, IANBD fluorophore coupled at position Lys28 (designed binder, Cys at position 28 (H4S numbering) coupled to IANBD ester (ANBD)) MRGSHHHHHHGSVKVKFFWNGEEKEVDTSKIVWVKRAGCSVLFIYDDNGKNGYGDVTEKDAPKELLDMLARAEREKKLN | ΔΔG (conjugate against H4S(wt)) (hen egg-white lysozyme [1]): ≤ 0.5 kcal/mol; Kd (hen egg-white lysozyme [2]): 28 nM; ΔF∞/F0 (maximal relative variation of fluorescence on HEL binding) (hen egg-white lysozyme [2]): 0.26 |
| – | – | H4S conjugate, IANBD fluorophore coupled at position Leu31 (designed binder, Cys at position 31 (H4S numbering) coupled to IANBD ester (ANBD)) MRGSHHHHHHGSVKVKFFWNGEEKEVDTSKIVWVKRAGKSVCFIYDDNGKNGYGDVTEKDAPKELLDMLARAEREKKLN | ΔΔG (conjugate against H4S(wt)) (hen egg-white lysozyme [1]): ≥ 1.5 kcal/mol; Kd (hen egg-white lysozyme [2]): 8360 nM; ΔF∞/F0 (maximal relative variation of fluorescence on HEL binding) (hen egg-white lysozyme [2]): 4.9 |
| – | – | H4S conjugate, IANBD fluorophore coupled at position Asp44 (designed binder, Cys at position 44 (H4S numbering) coupled to IANBD ester (ANBD)) MRGSHHHHHHGSVKVKFFWNGEEKEVDTSKIVWVKRAGKSVLFIYDDNGKNGYGCVTEKDAPKELLDMLARAEREKKLN | ΔΔG (conjugate against H4S(wt)) (hen egg-white lysozyme [1]): ≥ 1.5 kcal/mol; Kd (hen egg-white lysozyme [2]): 623 nM; ΔF∞/F0 (maximal relative variation of fluorescence on HEL binding) (hen egg-white lysozyme [2]): 1.5 |
| – | – | H4S conjugate, IANBD fluorophore coupled at position Asn40 (designed binder, Cys at position 40 (H4S numbering) coupled to IANBD ester (ANBD)) MRGSHHHHHHGSVKVKFFWNGEEKEVDTSKIVWVKRAGKSVLFIYDDNGKCGYGDVTEKDAPKELLDMLARAEREKKLN | ΔΔG (conjugate against H4S(wt)) (hen egg-white lysozyme [1]): ≥ 1.5 kcal/mol; Kd (hen egg-white lysozyme [2]): 2000 nM; ΔF∞/F0 (maximal relative variation of fluorescence on HEL binding) (hen egg-white lysozyme [2]): 0.57 |
